According to paper PMC9182242, “Copper Binding and Oligomerization Studies of the Metal Resistance Determinant CrdA from Helicobacter pylori” (Molecules, 2022):

Molecular target: the molecule itself
Experiment: SEC; analytical SEC, Superose 12 10/300 GL, 20 mM Tris-base pH 7.5, 150 mM NaCl, 3.8 mM nOG; HpCrdA incubated with EDTA (metal chelated); monomer-dimer equilibrium

B1: CrdA protein from Helicobacter pylori (HpCrdA) (natural protein)
chain: QTLKANDLEVKIKSVGNPIKGDNTFILSPTLKGKALEKAIVRVQFMMPEMPGMPAMKEMAQVSEKNGLYEAKTNLSMNGTWQVRVDIKSKEGQVYRAKTSLDL
notes: predicted mass of the monomer ~12.4 kDa; Residues of the pGEX-6P-1 linker probably remain after PreScission cleavage (surmised); also called HP1326; apo-HpCrdA; source: E. coli BL21(DE3), purified (GSTrap, GST cleaved with PreScission protease, Superdex 75 SEC); not shown: GST, N-terminal, cleaved
B1 was tested, and the “stoichiometry N” value was 2.
